Patent publication US20230203204A1 (published 2023)

Molecular target: T1, recombinant human RANKL-murine Fc fusion protein (Sino Biological Inc.) (human, UniProt O14788 136-317, limits assumed)
T1 construct: Bought; not shown: murine Fc
T1 sequence (looked up): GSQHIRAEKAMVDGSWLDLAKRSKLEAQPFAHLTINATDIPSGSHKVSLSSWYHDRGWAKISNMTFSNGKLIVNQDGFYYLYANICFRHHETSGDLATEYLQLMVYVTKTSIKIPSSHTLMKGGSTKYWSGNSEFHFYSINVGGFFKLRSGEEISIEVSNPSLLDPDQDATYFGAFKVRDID
Test: ELISA, human RANKL-murine Fc coated at 1 ug/mL, fusion protein titrated, anti-human IgG Fc-AP detection

B1: OPG-Fc (Sino Biological Inc.) (Fc fusion, UniProt O00300 22-401, looked up)
chain: ETFPPKYLHYDEETSHQLLCDKCPPGTYLKQHCTAKWKTVCAPCPDHYYTDSWHTSDECLYCSPVCKELQYVKQECNRTHNRVCECKEGRYLEIEFCLKHRSCPPGFGVVQAGTPERNTVCKRCPDGFFSNETSSKAPCRKHTNCSVFGLLLTQKGNATHDNICSGNSESTQKCGIDVTLCEEAFFRFAVPTKFTPNWLSVLVDNLPGTKVNAESVERIKRQHSSQEQTFQLLKLWKHQNKDQDIVKKIIQDIDLCENSVQRHIGHANLTFEQLRSLMESLPGKKVGAEDIEKTIKACKPSDQILKLLSLWRIKNGDQDTLKGLMHALKHSKTYHFPKTVTQSLKKTIRFLHSFTMYKLYQKLFLEMIGNQVQSVKISCL
notes: not shown: Fc part of the bought product
EC50: 0.04 µg/mL
